Legend:
HeLa Kyoto [1] = assay: solubility in G1/S (NP-40 vs SDS abundance) (log2 ratio); higher = more soluble; settings: cell cycle stage: G1/S
HeLa Kyoto [2] = assay: melting temperature (median over replicates), in situ; higher = more thermally stable
HeLa Kyoto [3] = assay: solubility change mitosis vs G1/S (difference of NP-40 vs SDS log2 ratios) (log2 ratio difference); higher = more soluble in mitosis
HeLa Kyoto [4] = assay: thermal stability score vs G1/S (z-score of summed log2 fold changes over temperatures); higher = more thermally stable than in G1/S
[5] = cell cycle stage: early G1 (4.5 h after nocodazole release)
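Wherever melting temperature (median over replicates), in situ is given: HeLa Kyoto cells synchronized by double thymidine or nocodazole block, proteins quantified by TMT10plex mass spectrometry, three independent biological replicates.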
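Wherever solubility change mitosis vs G1/S (difference of NP-40 vs SDS log2 ratios) is given: synchronized HeLa Kyoto cells (double thymidine block for G1/S, nocodazole release for mitosis), protein amounts in NP-40 versus SDS lysates quantified by mass spectrometry, three biological replicates.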
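Wherever solubility in G1/S (NP-40 vs SDS abundance) is given: HeLa Kyoto cells arrested at G1/S by double thymidine block, proteins quantified by TMT10plex mass spectrometry in mild NP-40 versus SDS extracts, three biological replicates.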
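Wherever thermal stability score vs G1/S (z-score of summed log2 fold changes over temperatures) is given: synchronized HeLa Kyoto cells, proteins quantified by TMT10plex mass spectrometry, three biological replicates, mitosis taken 0.5 h after nocodazole release, G1/S directly after double thymidine block.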

For “MGSMFRSEEVALVQLFLPTAAAYTCVSRLGELGLVEFRDLNASVSAFQRRFVVDVRRCEELEKTFTFLQEEVRRAGLVLPPPKGRLPAPPPRDLLRIQEETERLAQELRDVRGNQQALRAQLHQLQLHAAVLRQGHEPQLAAAHTDGASERTPLLQAPGGPHQDLRVNFVAGAVEPHKAPALERLLWRACRGFLIASFRELEQPLEHPVTGEPATWMTFLISYWGEQIGQKIRKITDCFHCHVFPFLQQEEARLGALQQLQQQSQELQEVLGETERFLSQVLGRVLQLLPPGQVQVHKMKAVYLALNQCSVSTTHKCLIAEAWCSVRDLPALQEALRDSSMEEGVSAVAHRIPCRDMPPTLIRTNRFTASFQGIVDAYGVGRYQEVNPAPYTIITFPFLFAVMFGDVGHGLLMFLFALAMVLAENRPAVKAAQNEIWQTFFRGRYLLLLMGLFSIYTGFIYNECFSRATSIFPSGWSVAAMANQSGWSDAFLAQHTMLTLDPNVTGVFLGPYPFGIDPIWSLAANHLSFLNSFKMKMSVILGVVHMAFGVVLGVFNHVHFGQRHRLLLETLPELTFLLGLFGYLVFLVIYKWLCVWAARAASAPSILIHFINMFLFSHSPSNRLLYPRQEVVQATLVVLALAMVPILLLGTPLHLLHRHRRRLRRRPADRQEENKAGLLDLPDASVNGWSSDEEKAGGLDDEEEAELVPSEVLMHQAIHTIEFCLGCVSNTASYLRLWALSLAHAQLSEVLWAMVMRIGLGLGREVGVAAVVLVPIFAAFAVMTVAILLVMEGLSAFLHALRLHWVEFQNKFYSGTGYKLSPFTFAATDD [TCIRG1]”, the “solubility in G1/S (log2)” value (HeLa Kyoto [1]) was -0.278, the melting temperature (HeLa Kyoto [2]; cell cycle stage: G1/S) was 53 °C and the melting temperature (HeLa Kyoto [2]; cell cycle stage: mitosis) was 54.1 °C. For the same sequence, the “solubility change mitosis (log2)” value (HeLa Kyoto [3]) was 0.0336, the thermal stability score (HeLa Kyoto [4]; [5]) was -2.43 and the thermal stability score (HeLa Kyoto [4]; cell cycle stage: mitosis) was -1.47.

With “MGSPEGRFHFAIDRGGTFTDVFAQCPGGHVRVLKLLSEDPANYADAPTEGIRRILEQEAGMLLPRDQPLDSSHIASIRMGTTVATNALLERKGERVALLVTRGFRDLLHIGTQARGDLFDLAVPMPEVLYEEVLEVDERVVLHRGEAGTGTPVKGRTGDLLEVQQPVDLGALRGKLEGLLSRGIRSLAVVLMHSYTWAQHEQQVGVLARELGFTHVSLSSEAMPMVRIVPRGHTACADAYLTPAIQRYVQGFCRGFQGQLKDVQVLFMRSDGGLAPMDTFSGSSAVLSGPAGGVVGYSATTYQQEGGQPVIGFDMGGTSTDVSRYAGEFEHVFEASTAGVTLQAPQLDINTVAAGGGSRLFFRSGLFVVGPESAGAHPGPACYRKGGPVTVTDANLVLGRLLPASFPCIFGPGENQPLSPEASRKALEAVATEVNSFLTNGPCPASPLSLEEVAMGFVRVANEAMCRPIRALTQARGHDPSAHVLACFGGAGGQHACAIARALGMDTVHIHRHSGLLSALGLALADVVHEAQEPCSLLYAPETFVQLDQRLSRLEEQCVDALQAQGFPRSQISTESFLHLRYQGTDCALMVSAHQHPATARSPRAGDFGAAFVERYMREFGFVIPERPVVVDDVRVRGTGRSGLRLEDAPKAQTGPPRVDKMTQCYFEGGYQETPVYLLAELGYGHKLHGPCLIIDSNSTILVEPGCQAEVTKTGDICISVGAEVPGTVGPQLDPIQLSIFSHRFMSIAEQMGRILQRTAISTNIKERLDFSCALFGPDGGLVSNAPHIPVHLGAMQETVQFQIQHLGADLHPGDVLLSNHPSAGGSHLPDLTVITPVFWPGQTRPVFYVASRGHHADIGGITPGSMPPHSTMLQQEGAVFLSFKLVQGGVFQEEAVTEALRAPGKVPNCSGTRNLHDNLSDLRAQVAANQKGIQLVGELIGQYGLDVVQAYMGHIQANAELAVRDMLRAFGTSRQARGLPLEVSSEDHMDDGSPIRLRVQISLSQGSAVFDFSGTGPEVFGNLNAPRAVTLSALIYCLRCLVGRDIPLNQGCLAPVRVVIPRGSILDPSPEAAVVGGNVLTSQRVVDVILGAFGACAASQGCMNNVTLGNAHMGYYETVAGGAGAGPSWHGRSGVHSHMTNTRITDPEILESRYPVILRRFELRRGSGGRGRFRGGDGVTRELLFREEALLSVLTERRAFRPYGLHGGEPGARGLNLLIRKNGRTVNLGGKTSVTVYPGDVFCLHTPGGGGYGDPEDPAPPPGSPPQALAFPEHGSVYEYRRAQEAV [OPLAH]” the “solubility in G1/S (log2)” value (HeLa Kyoto [1]) was 0.0511, the melting temperature (HeLa Kyoto [2]; cell cycle stage: G1/S) was 51.1 °C and the melting temperature (HeLa Kyoto [2]; cell cycle stage: mitosis) was 51.3 °C. The “solubility change mitosis (log2)” value (HeLa Kyoto [3]) was -0.171, the thermal stability score (HeLa Kyoto [4]; [5]) was -0.162 and the thermal stability score (HeLa Kyoto [4]; cell cycle stage: mitosis) was -0.669.

With “MGSQVSVESGALHVVIVGGGFGGIAAASQLQALNVPFMLVDMKDSFHHNVAALRASVETGFAKKTFISYSVTFKDNFRQGLVVGIDLKNQMVLLQGGEALPFSHLILATGSTGPFPGKFNEVSSQQAAIQAYEDMVRQVQRSRFIVVVGGGSAGVEMAAEIKTEYPEKEVTLIHSQVALADKELLPSVRQEVKEILLRKGVQLLLSERVSNLEELPLNEYREYIKVQTDKGTEVATNLVILCTGIKINSSAYRKAFESRLASSGALRVNEHLQVEGHSNVYAIGDCADVRTPKMAYLAGLHANIAVANIVNSVKQRPLQAYKPGALTFLLSMGRNDGVGQISGFYVGRLMVRLTKSRDLFVSTSWKTMRQSPP [AIFM2]” the “solubility in G1/S (log2)” value (HeLa Kyoto [1]) was 0.112, the melting temperature (HeLa Kyoto [2]; cell cycle stage: G1/S) was 55.3 °C and the melting temperature (HeLa Kyoto [2]; cell cycle stage: mitosis) was 53.7 °C. For the same sequence, the “solubility change mitosis (log2)” value (HeLa Kyoto [3]) was -0.209, the thermal stability score (HeLa Kyoto [4]; [5]) was -1.05 and the thermal stability score (HeLa Kyoto [4]; cell cycle stage: mitosis) was -2.26.

Source: the supplement of paper PMC5998384
